Results from paper PMC9888386 (The Journal of Clinical Investigation, 2023).

Target: T1, KEAP1 (microscale thermophoresis assay) (UniProt Q14145 1-624)
T1 construct: KEAP1 as used in the microscale thermophoresis assay; May be the same as GST-KEAP1-WT
Assay: MST; microscale thermophoresis; conditions in the Supplemental Methods, not shown

T1 sequence (Q14145 whole entry): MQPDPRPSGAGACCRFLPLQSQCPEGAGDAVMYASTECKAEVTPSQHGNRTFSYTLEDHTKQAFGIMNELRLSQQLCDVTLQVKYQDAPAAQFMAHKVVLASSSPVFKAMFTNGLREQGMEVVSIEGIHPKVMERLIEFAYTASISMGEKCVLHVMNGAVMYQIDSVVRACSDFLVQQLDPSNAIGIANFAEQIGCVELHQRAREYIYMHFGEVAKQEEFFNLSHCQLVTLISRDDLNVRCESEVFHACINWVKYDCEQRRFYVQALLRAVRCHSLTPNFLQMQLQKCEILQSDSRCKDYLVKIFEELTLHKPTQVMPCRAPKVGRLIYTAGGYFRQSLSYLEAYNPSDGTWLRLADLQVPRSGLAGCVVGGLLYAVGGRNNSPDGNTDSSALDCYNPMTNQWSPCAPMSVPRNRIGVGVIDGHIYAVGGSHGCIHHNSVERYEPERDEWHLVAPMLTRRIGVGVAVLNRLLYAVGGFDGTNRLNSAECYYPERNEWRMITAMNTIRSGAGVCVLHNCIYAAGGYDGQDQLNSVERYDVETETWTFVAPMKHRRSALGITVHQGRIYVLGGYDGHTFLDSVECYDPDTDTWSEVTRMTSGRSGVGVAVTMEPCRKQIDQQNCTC

B1: truncated NRF2 (NRF2^ΔDLG) (natural protein)
chain: MMDLELPPPGLPSQQDMDLIDILWRQDIVSREVFDFSQRRKEYELEKQKKLEKERQEQLQKEQEKAFFAQLQLDEETGEFLPIQPAQHIQSETSGSANYSQVAHIPKSDALYFDDCMQLLAQTFPFVDDNEVSSATFQSLVPDIPGHIESPVFIATNQAQSPETSVAQVAPVDLDGMQQDIEQVWEELLSIPELQCLNIENDKLVETTMVPSPEAKLTEVDNYHFYSSIPSMEKEVGNCSPHFLNAFEDSFSSILSTEDPNQLTVNSLNSDATVNTDFGDEFYSAFIAEPSISNSMPSPATLSHSLSELLNGPIDVSDLSLCKAFNQNHPESTAEFNDSDSGISLNTSPSVASPEHSVESSSYGDTLLGLSDSEVEELDSAPGSVKQNGPKTPVHSSGDMVQPLSPSQGQSTHVHDAQCENTPEKELPVSPGHRKTPFTKDKHSSRLEAHLTRDELRAKALHIPFPVEKIINLPVVDFNEMMSKEQFNEAQLALIRDIRRRGKNKVAAQNCRKRKLENIVELEQDLDHLKDEKEKLLKEKGENDKSLHLLKKQLSTLYLEVFSMLRDEDGKPYSPSEYSLQQTRDGNVFLVPKSKKPDVKKN
  Kd: 5.28 µM
